Test results from PMC11385167 (mAbs, 2024).

Target: T1, human MR C-type 1, full extracellular domain (human, UniProt P22897 19-1389)
T1 sequence (looked up): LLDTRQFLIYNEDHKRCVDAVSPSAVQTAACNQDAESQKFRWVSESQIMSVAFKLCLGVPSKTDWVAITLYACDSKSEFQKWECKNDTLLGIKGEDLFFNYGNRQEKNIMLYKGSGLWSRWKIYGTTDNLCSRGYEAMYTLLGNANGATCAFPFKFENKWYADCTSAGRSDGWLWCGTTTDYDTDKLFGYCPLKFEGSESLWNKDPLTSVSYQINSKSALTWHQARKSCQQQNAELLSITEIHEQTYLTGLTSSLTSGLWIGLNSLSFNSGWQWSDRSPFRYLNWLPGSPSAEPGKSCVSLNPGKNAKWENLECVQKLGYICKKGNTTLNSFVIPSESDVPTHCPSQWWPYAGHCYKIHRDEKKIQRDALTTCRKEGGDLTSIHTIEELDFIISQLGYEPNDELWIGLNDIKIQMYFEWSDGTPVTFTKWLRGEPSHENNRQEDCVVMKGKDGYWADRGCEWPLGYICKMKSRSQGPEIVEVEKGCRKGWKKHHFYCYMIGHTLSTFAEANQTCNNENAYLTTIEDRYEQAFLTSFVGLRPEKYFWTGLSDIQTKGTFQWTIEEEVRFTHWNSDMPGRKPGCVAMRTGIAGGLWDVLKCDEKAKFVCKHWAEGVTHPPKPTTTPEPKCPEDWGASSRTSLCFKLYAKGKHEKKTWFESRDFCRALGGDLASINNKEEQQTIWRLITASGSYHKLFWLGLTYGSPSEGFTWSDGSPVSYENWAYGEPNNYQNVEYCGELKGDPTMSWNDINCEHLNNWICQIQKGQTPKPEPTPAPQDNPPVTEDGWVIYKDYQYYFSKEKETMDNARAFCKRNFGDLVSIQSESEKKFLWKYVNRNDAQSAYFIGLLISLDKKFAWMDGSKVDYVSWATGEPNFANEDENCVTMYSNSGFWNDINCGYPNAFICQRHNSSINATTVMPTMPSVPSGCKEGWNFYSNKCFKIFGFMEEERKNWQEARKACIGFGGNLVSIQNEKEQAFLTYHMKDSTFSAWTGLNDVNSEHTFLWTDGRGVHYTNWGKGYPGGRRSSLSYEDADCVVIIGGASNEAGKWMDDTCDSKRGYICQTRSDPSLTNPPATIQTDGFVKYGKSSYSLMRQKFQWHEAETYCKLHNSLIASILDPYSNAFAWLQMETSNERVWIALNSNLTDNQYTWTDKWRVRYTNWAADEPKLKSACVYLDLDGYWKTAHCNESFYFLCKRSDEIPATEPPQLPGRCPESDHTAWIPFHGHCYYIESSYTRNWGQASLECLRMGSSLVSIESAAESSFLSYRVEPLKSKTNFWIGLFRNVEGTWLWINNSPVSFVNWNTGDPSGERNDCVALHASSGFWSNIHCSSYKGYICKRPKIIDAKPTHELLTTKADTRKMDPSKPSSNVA
Experiment: SPR

- Kd: 1300 nM
B1: RNAse B (enzyme, UniProt P61823 27-150, looked up)
chain: KETAAAKFERQHMDSSTSAASSSNYCNQMMKSRNLTKDRCKPVNTFVHESLADVQAVCSQKNVACKNGQTNCYQSYSTMSITDCRETGSSKYPNCAYKTTQANKHIIVACEGNPYVPVHFDASV
modifications: single N-glycosylation site containing mainly M5 and M6 N-glycans
